For the test, the target named is full-length mScarlet-tagged tau (2N4R) (human) (UniProt P10636). Briefly: TIRF microscopy, condensate enrichment assay.

Consider “GFP-tagged tau “bonsai” construct (fusion between the N- and C-terminus, lacking the MTBD)”, for which the fold enrichment within mScarlet-2N4R condensates over the lattice was found to be 1.3 fold.

Values taken from article PMC6748660.
